For three molecules, Kd results are on record in patent US20140302026A1 (published 2014).

Assay [1] deals with artificial endostatin dimer (UniProt P39060). Nature of the assay: SPR (Biacore). In general terms: SPR reads the build-up and loss of mass on a sensor chip optically.
Assay [2] has as its target fibronectin (UniProt P02751 32-2477). Nature of the assay: SPR (Biacore).

As a reminder, the Kd is the constant that tells how readily two partners part at equilibrium. “fibronectin (from UniProt P02751 32-2477)” displayed a Kd in assay [1] of 4.84 nM. In other words, the single-digit nanomolar range.

B1: Human VEGF (R&D) (ligand)
chain: APMAEGGGQNHHEVVKFMDVYQRSYCHPIETLVDIFQEYPDEIEYIFKPSCVPLMRCGGCCNDEGLECVPTEESNITMQIMRIKPHQGQHIGEMSFLQHNKCECRPKKDRARQENPCGPCSERRKHLFVQDPQTCKCSCKNTDSRCKARQLELNERTCRCDKPRR
In assay [2], B1 showed a Kd of 1.35 nM.

B2: human NC-1 (hNC-1) trimer of collagen 18 (other)
chain: SGVRLWATRQAMLGQVHEVPEGWLIFVAEQEELYVRVQNGFRKVQLEARTPLPRGTDNEVAALQPPVVQLHDSNPYPRREHPHPTARPWRADDILASPPRLPEPQPYPGAPHHSSYVHLRPARPTSPPAHSHRDFQPVLHLVALNSPLSGGMRGIRGADFQCFQQARAVGLAGTFRAFLSSRLQDLYSIVRRADRAAVPIVNLKDELLFPSWEALFSGSEGPLKPGARIFSFDGKDVLRHPTWPQKSVWHGSDPNGRRLTESYCETWRTEAPSATGQASSLLGGRLLGQSAASCHHAYIVLCIENSFMTASK
In assay [2], B2 returned a Kd of 8.4 nM.
